These results are taken from patent US20250250355A1 (BIOSION, published 2025).

Assay [1] has as its target human SIRPα protein (soluble, used on 293F-CD47 cells) (human, UniProt P78324 31-370, limits assumed). As to the kind of experiment: cell based blocking FACS on 293F-CD47 cells; soluble human SIRPα protein blocked from binding cell surface human CD47, MFI.
Assay [2] concerns the target T1, human FcRn protein (Cat #FCM-H5286, Acro biosystems Inc.) (human, UniProt P55899 24-297; P61769 21-119). Nature of the assay: SPR (Biacore); human FcRn covalently linked to CM5 chip, antibody flowed from 62.5 µg/ml; pH 6.0. In general terms: In SPR one partner is held on a chip, and binding of the other changes the refractive index at the surface.
In assay [3] the target is T2, full length human SIRPα on cell membranes (HEK293-SIRPα cells; 293F-SIRPα cells) (human, UniProt P78324 31-504).
T2 construct: whole, on cells; also called cell surface human SIRPα; cell surface SIRPα
As to the kind of experiment: cell based binding FACS on 293F cells expressing human SIRPα, MFI.

Assay [4] deals with T3, cynomolgus SIRPα-his protein (cynomolgus).
T3 construct: also called Cyno SIRPα-his; monkey SIRPα
T3 chain: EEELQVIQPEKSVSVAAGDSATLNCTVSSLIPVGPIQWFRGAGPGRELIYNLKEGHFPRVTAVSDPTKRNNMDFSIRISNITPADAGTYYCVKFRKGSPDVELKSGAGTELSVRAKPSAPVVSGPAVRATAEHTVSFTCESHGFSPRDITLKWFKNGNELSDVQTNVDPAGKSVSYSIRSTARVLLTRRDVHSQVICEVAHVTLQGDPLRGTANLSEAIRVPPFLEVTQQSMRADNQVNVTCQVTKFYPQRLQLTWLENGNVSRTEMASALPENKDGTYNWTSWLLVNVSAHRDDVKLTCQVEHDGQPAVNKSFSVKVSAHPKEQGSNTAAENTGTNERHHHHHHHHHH
Nature of the assay: indirect ELISA on coated cynomolgus SIRPα-his, OD(450-630); curve flat at the baseline (see non_binding). On the technique in general: ELISA stands for enzyme-linked immunosorbent assay.

The target of assay [5] is T1, human FcRn protein (Cat #FCM-H5286, …). As to the kind of experiment: SPR (Biacore); human FcRn covalently linked to CM5 chip, antibody flowed from 62.5 µg/ml; pH 7.4.
The target in assay [6] is human SIRPγ-his protein (human, UniProt Q9P1W8 29-360, limits assumed). Nature of the assay: SPR (Biacore T200), antibody captured on Protein A chip, human SIRPγ-his flowed.
For assay [7], the target named is human SIRPα-his protein (human, UniProt P78324 31-370). As to the kind of experiment: SPR (Biacore T200); antibody captured on Protein A chip, human SIRPα-his flowed from 200 nM; 1:1 Langmuir fit.
The target in assay [8] is human SIRPβ-his protein (human, UniProt O00241 30-371). As to the kind of experiment: SPR (Biacore T200); antibody captured on Protein A chip, human SIRPβ-his flowed from 200 nM; 1:1 Langmuir fit.
Assay [9] addresses T4, full length human SIRPγ endogenously expressed on Jurkat cells (human, UniProt Q9P1W8 29-387).
T4 construct: whole, on cells; also called human SIRPγ expressed on Jurkat cells
As to the kind of experiment: cell based binding FACS on Jurkat cells (endogenous human SIRPγ), MFI; curve flat at MFI about 35 up to about 13 nM, rises to about 115 only at the last point (about 67 nM); paragraph 213 says no binding.

The target of assay [10] is human SIRPα-V8-his protein (human, UniProt P78324 31-370, limits assumed). Nature of the assay: indirect ELISA on coated human SIRPα-V8-his, OD(450-630).
Assay [11] deals with T5, full length human SIRPβ on cell membranes (HEK293-SIRPβ cells; 293F cells expressing human SIRPβ) (human, UniProt O00241 30-398).
T5 construct: whole, on cells; also called cell surface human SIRPβ
As to the kind of experiment: cell based binding FACS on 293F cells expressing human SIRPβ, MFI.

Assay [12] has as its target human SIRPα-isoform 2-his protein (human). As to the kind of experiment: indirect ELISA on coated human SIRPα-isoform 2-his, OD(450-630).
In assay [13] the target is T2, full length human SIRPα on cell …. Nature of the assay: cell based blocking FACS on 293F-SIRPα cells; blocked ligand: human CD47 protein (CD47-Fc), MFI.
The target of assay [14] is T6, mouse SIRPα-his (mouse, UniProt P97797 35-363, limits assumed).
T6 chain: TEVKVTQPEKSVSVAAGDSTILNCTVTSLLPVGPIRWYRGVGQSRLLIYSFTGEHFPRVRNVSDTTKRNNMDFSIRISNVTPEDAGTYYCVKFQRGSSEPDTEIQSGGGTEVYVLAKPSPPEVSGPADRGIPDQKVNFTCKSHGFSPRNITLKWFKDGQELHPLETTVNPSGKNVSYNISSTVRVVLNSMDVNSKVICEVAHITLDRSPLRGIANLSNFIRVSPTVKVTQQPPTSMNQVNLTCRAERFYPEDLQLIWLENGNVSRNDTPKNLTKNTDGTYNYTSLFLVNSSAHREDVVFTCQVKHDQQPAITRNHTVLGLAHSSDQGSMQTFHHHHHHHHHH
As to the kind of experiment: indirect ELISA on coated mouse SIRPα-his, OD(450-630).

Assay [15] has as its target T1, human FcRn protein (Cat #FCM-H5286, …). Nature of the assay: SPR (Biacore); human FcRn covalently linked to CM5 chip, antibody flowed from 62.5 µg/ml; pH 6.0; pH 6.0.
For assay [16], the target named is T4, full length human SIRPγ endogenously …. Nature of the assay: cell based binding FACS on Jurkat cells (endogenous human SIRPγ), MFI; curve flat at MFI about 35 up to about 13 nM, rises to about 185 only at the last point (about 67 nM); paragraph 213 says no binding.

T2 sequence (P78324 31-504): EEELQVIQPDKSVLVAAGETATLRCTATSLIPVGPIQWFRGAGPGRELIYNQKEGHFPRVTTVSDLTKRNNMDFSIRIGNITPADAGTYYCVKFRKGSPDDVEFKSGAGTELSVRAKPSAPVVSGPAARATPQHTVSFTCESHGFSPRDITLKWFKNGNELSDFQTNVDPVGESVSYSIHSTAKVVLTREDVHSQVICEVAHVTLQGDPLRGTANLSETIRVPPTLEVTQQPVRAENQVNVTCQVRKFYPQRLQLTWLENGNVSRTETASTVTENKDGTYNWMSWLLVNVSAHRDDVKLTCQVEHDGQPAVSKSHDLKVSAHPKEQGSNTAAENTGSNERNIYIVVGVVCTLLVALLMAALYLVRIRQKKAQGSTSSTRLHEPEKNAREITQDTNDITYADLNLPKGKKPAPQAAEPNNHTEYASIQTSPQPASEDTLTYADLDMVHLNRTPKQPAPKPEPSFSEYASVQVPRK
Sequence of human SIRPα-his protein (P78324 other isoform, or with tags, fused parts or gaps limits assumed): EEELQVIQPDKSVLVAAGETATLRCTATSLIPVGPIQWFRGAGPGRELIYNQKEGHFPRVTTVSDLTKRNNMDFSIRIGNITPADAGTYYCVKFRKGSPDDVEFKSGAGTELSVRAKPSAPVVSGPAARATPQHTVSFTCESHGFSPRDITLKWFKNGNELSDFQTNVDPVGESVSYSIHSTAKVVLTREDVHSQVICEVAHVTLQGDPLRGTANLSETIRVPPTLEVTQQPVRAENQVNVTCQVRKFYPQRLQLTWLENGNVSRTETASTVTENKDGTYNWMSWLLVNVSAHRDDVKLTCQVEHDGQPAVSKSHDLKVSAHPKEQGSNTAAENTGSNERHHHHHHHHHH
T1 sequence (P55899 24-297 limits assumed, chain 1 of 2): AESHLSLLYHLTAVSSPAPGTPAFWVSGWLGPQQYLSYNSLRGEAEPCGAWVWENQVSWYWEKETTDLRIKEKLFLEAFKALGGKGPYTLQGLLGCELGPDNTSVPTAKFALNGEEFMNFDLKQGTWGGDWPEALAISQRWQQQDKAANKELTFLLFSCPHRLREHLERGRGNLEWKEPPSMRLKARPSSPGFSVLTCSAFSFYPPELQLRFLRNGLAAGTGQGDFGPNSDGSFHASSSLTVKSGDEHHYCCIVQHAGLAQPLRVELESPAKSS
T1 sequence (P61769 21-119 limits assumed, chain 2 of 2): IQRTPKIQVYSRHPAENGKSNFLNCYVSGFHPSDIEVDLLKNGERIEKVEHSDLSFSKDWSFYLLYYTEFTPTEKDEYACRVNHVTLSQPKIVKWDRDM
Sequence of human SIRPβ-his protein (O00241 other isoform, or with tags, fused parts or gaps limits assumed): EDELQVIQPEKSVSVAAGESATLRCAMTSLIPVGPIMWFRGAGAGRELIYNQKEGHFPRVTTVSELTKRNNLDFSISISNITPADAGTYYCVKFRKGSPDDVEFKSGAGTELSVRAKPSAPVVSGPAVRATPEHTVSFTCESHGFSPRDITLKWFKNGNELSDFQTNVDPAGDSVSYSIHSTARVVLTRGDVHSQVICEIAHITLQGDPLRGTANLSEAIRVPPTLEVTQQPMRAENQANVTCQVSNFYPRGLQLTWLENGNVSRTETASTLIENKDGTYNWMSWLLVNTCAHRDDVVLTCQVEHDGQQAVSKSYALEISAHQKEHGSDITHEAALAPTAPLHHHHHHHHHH
Sequence of human SIRPα protein (soluble, used on 293F-CD47 cells) (P78324 31-370 limits assumed): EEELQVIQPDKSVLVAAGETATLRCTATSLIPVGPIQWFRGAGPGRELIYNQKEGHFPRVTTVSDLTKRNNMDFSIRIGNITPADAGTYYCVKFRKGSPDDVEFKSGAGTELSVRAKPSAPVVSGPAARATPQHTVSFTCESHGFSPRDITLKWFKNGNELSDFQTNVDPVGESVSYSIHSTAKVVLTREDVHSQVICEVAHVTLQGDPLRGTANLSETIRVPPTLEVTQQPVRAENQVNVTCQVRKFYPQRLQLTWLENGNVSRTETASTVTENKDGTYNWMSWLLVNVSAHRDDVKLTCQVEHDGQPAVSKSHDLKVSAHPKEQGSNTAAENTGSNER
Sequence of human SIRPα-isoform 2-his protein (human) (chain, as listed by the source limits assumed): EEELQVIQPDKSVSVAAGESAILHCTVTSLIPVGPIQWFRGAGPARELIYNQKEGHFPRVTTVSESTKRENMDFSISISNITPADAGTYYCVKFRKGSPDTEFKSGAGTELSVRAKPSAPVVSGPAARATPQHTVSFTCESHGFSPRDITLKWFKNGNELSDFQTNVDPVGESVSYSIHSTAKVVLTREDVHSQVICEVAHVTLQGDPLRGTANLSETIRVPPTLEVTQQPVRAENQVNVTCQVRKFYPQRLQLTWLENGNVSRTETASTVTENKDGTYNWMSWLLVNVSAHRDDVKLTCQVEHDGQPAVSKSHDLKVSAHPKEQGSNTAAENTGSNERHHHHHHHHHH
Sequence of human SIRPα-V8-his protein (P78324 other isoform, or with tags, fused parts or gaps limits assumed): as the sequence (chain, as listed by the source limits assumed) above, with S14L, S20T, I22T, H24R, V27A counted along it
T4 sequence (Q9P1W8 29-387): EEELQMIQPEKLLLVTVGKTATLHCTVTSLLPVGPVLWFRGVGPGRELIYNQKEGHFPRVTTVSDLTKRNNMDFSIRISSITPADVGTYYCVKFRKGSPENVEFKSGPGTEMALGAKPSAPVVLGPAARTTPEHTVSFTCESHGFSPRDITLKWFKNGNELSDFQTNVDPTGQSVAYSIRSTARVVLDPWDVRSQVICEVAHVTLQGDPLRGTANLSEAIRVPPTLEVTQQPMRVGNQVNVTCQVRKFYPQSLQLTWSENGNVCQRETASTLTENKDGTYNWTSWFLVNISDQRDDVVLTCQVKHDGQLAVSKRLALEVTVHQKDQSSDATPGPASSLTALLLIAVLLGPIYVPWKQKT
Sequence of human SIRPγ-his protein (Q9P1W8 29-360 limits assumed): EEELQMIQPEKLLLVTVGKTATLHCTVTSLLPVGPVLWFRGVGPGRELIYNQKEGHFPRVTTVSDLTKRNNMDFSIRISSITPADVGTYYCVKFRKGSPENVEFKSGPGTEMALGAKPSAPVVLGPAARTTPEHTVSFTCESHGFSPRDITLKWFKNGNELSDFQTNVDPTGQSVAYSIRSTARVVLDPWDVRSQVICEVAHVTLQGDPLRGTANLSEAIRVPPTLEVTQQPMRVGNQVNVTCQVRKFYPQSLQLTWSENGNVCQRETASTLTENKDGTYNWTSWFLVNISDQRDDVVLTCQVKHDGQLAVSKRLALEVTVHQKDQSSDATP
T5 sequence (O00241 30-398): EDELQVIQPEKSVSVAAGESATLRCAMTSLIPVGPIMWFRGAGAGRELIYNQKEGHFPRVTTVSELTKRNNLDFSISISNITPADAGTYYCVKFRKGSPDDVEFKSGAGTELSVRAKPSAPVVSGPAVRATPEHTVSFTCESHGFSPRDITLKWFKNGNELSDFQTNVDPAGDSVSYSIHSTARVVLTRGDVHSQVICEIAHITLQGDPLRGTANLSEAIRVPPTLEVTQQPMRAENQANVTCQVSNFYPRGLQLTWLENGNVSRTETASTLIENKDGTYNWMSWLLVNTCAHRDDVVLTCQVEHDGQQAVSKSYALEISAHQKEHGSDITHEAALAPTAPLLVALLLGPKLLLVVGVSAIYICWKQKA

B1: E1F1B1C3-CDRV1-IgG1 (YTE) (antibody)
heavy: QVQLVQSGAEVKKPGASVKVSCKASGYTFTSNAMHWVRQVPGQGLEWMGWIKAGNAEIKYSQKFQGRVTITRDTSATTAYMELSSLRSEDTAVYYCARGDYYYYYMDVWGKGTTVTVSSASTKGPSVFPLAPSSKSTSGGTAALGCLVKDYFPEPVTVSWNSGALTSGVHTFPAVLQSSGLYSLSSVVTVPSSSLGTQTYICNVNHKPSNTKVDKKVEPKSCDKTHTCPPCPAPEAQGGPSVFLFPPKPKDTLYITREPEVTCVVVDVSHEDPEVKFNWYVDGVEVHNAKTKPREEQYNSTYRVVSVLTVLHQDWLNGKEYKCQVSNKALPAPIEKTISKAKGQPREPQVYTLPPSRDELTKNQVSLTCLVKGFYPSDIAVEWESNGQPENNYKTTPPVLDSDGSFFLYSKLTVDKSRWQQGNVFSCSVMHEALHNHYTQKSLSLSPG
light: DIQVTQSPSSLSASVGDRVTITCRASQSISDFLNWYQQKPGKAPKLLIHAASSLQAGVPSRFSGSGSGTDFSLTINSLQPEDFATYYCQQSYSTPLSFGGGTKVEIKRTVAAPSVFIFPPSDEQLKSGTASVVCLLNNFYPREAKVQWKVDNALQSGNSQESVTEQDSKDSTYSLSSTLTLSKADYEKHKVYACEVTHQGLSSPVTKSFNRGEC
Regarding B1, the IC50 (as a rule, the point on the concentration scale where inhibition reaches its midpoint) in assay [1] is 0.264 nM; in [13] it was 0.573 nM. Besides, the Kd (in general, the free concentration of one partner at which half of the binding sites on the other are occupied at equilibrium, for simple one-to-one binding) in assay [2] was 26.8 nM; in assay [5] it was 651 nM; in assay [7], 0.824 nM; in assay [8], 2.81 nM. For the same molecule, the EC50 (in general, the midpoint of the concentration-response curve) is 0.27 nM in [3]; 86.7 nM in [4]; approximately 38.6 nM in assay [9]; 0.179 nM in [10]; 0.2 nM in [11]; 0.106 nM in assay [12]. The binding result in assay [6] is recorded as “no binding (tested: antigen starting at 200 nM)”; in assay [14], “no binding (tested: ~67 nM)”. Besides, the off-rate constant (koff) (commonly the first-order rate constant of dissociation) came out at 0.00105 s⁻¹ in assay [7] and 0.002 s⁻¹ in assay [8]. The on-rate constant (kon) (in general, a measure of how fast the partners come together) in [7] came out at 1.28e+06 M⁻¹ s⁻¹; in [8], 713000 M⁻¹ s⁻¹.

B2: E1F1B1C3-CDRV1-IgG1 (antibody)
heavy: not shown
light: B1 light
Turning to B2, the IC50 in [1] was determined as 0.27 nM; in assay [13], 0.488 nM. Moreover, the EC50 in assay [3] was 0.27 nM; in [4], approximately 2930 nM; in assay [10], 0.148 nM; in assay [16], approximately 954 nM; in assay [11], 0.248 nM; in [12], 0.129 nM. The binding result in [6] is “no binding (tested: antigen starting at 200 nM)”; in [14] it was “no binding (tested: ~67 nM)”. For the same molecule, the figures for the Kd in [7], in assay [8] and in [15] were 0.344 nM, 1.17 nM and 56.7 nM, respectively. Also, the values for the koff in assay [7] and in [8] were 0.000402 s⁻¹ and 0.000907 s⁻¹, respectively. Besides, the kon worked out at 1.17e+06 M⁻¹ s⁻¹ in assay [7] and 773000 M⁻¹ s⁻¹ in [8].
